± gives the standard deviation of the averaged measurements.
tested on: Saccharomyces cerevisiae; assay: protein stability index of tFT-peptide fusion (C-terminal peptide) (PSI (0-1 scale)); higher = more stable (slower turnover); conditions: genetic background: wild type; temperature: 30 C
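Further: PSI is a weighted mean of sequencing reads over stability bins, variants kept only with over 10 reads, mCherry proximal and sfGFP distal, peptide attached via GGGS linker.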

Point of comparison: PSTPLPHLTRPS, protein stability index 0.677 ± 0.07. Against it:
- SLPLPVFSFPCS — within error, 0.653 ± 0.00069
- RILNADSREHSS — within error, 0.775 ± 0.12
- PTLPPHSLRPPP — within error, 0.692 ± 0.018
- IWTSFKRRRWNF — lower, 0.532 ± 0.033
- NRDSPPAGEIHA — within error, 0.648 ± 0.082
- VLLRRRSIWPLG — within error, 0.72 ± 0.0063
- SINLLFHSFFFL — within error, 0.608 ± 0.047
- LLPLGSLSLSPP — within error, 0.7257 ± 0.0024
- VRVSGVSVVRFW — within error, 0.667 ± 0.012
- IAVPFMPADLSF — within error, 0.718 ± 0.0089
- FPRPLPPLSPLL — within error, 0.7162 ± 0.0037
- PPITKKITRNTA — within error, 0.676 ± 0.014
- YPYLLSPRPPPP — within error, 0.628 ± 0.047
- VPPSCPRPPTAP — within error, 0.676 ± 0.064
- PPPPHYPHHTAS — within error, 0.738 ± 0.029
- KDLFDLYLKRLL — within error, 0.65 ± 0.0098
- TSPPPPSPPPPP — within error, 0.785 ± 0.13
- FSGGGRGLGGEV — within error, 0.684 ± 0.024
- AAQDTRAHYRTR — within error, 0.704 ± 0.044
- KKGVSNKVSGFT — within error, 0.719 ± 0.014
- SPRLRSRQVALS — within error, 0.556 ± 0.17
- LVWGGVWGAPCR — within error, 0.774 ± 0.034
- RADQGGVVNGEG — within error, 0.732 ± 0.055
- KKKKKKKKTNKE — within error, 0.656 ± 0.11
- PFSGPVYSHNDV — within error, 0.738 ± 0.08
- PPPPPLPPPSPF — within error, 0.734 ± 0.06
- CRGPTQFAGPAP — within error, 0.68 ± 0.088
- IGRWGVRWKAVG — lower, 0.512 ± 0.053
- PSHLNAPTTAPP — within error, 0.701 ± 0.038
- PLSCDSPFVNPT — within error, 0.737 ± 0.042
- EGRDDIVEKKRR — within error, 0.66 ± 0.063
- PRDLRVVRLTSA — within error, 0.63 ± 0.022
- VKQFLICKNGRS — within error, 0.728 ± 0.12
- AFNRYASRIQEV — within error, 0.695 ± 0.02
- KWMKKIKTRRQI — within error, 0.609 ± 0.018
- LSFWGLLSFWTP — within error, 0.594 ± 0.02
- APSLLAPPPLRP — within error, 0.674 ± 0.017
- SPRKTAVIGGTT — within error, 0.688 ± 0.034
- GFVGTVHLKCIS — within error, 0.642 ± 0.031
- TFPPSAPQSSCS — within error, 0.7041 ± 0.0027
- GSRTHSMEDTTG — within error, 0.646 ± 0.0098
- LELADGRCARSG — within error, 0.8 ± 0.065
- TPPPPAPSPPPP — within error, 0.761 ± 0.059
- RTGGIVATRASE — within error, 0.779 ± 0.13
- GTGSVHYHRSGL — within error, 0.676 ± 0.016
- CSYIQTSKTVVS — within error, 0.756 ± 0.082
- GGPGGGVSGWEG — within error, 0.704 ± 0.12
- SGTPTFTPSYPS — within error, 0.717 ± 0.026
- PFSSPPPLSLPP — within error, 0.7308 ± 0.0011
- PPSHIPASGTKR — within error, 0.716 ± 0.041
- EQWSAHSMLSGR — within error, 0.705 ± 0.026
- PDRGLRLKRILP — lower, 0.5675 ± 0.0017
- PPRSHKPPQMQT — within error, 0.663 ± 0.0082
- LHPCATITELTS — within error, 0.652 ± 0.026
- RTQKNMKKSYCG — within error, 0.63 ± 0.0075
- AFFVAFLPLLSR — lower, 0.552 ± 0.031
- PSKRKRATPSKR — within error, 0.647 ± 0.021
- RRLMMPSGQGLT — within error, 0.702 ± 0.031
- RCPPPQPPVRKV — within error, 0.642 ± 0.1
- FVSFTAVALFFG — lower, 0.567 ± 0.035
- KKKNKENKKKKK — within error, 0.737 ± 0.023
- YGGAWGGVIHVC — within error, 0.657 ± 0.0081
- FPCVAVFVESNR — within error, 0.647 ± 0.049
- FPRLTYAPFLAD — within error, 0.722 ± 0.02
- SYSSILPPLSSA — within error, 0.686 ± 0.022
- PPPRLRSPHGLF — within error, 0.718 ± 0.08
- KIMIGQPDGINV — within error, 0.65 ± 0.015
- DCWAGGGLCGWG — within error, 0.719 ± 0.05
- PFPLSPPPPPLD — within error, 0.761 ± 0.045
- RGPRSSGRKGIR — within error, 0.676 ± 0.042
- SACRVGKSILDT — within error, 0.728 ± 0.057
- SHSTPAFPLPPP — within error, 0.638 ± 0.068
- GAGRGLRQGSGG — within error, 0.666 ± 0.043
- RPPPPPSPPPPP — within error, 0.674 ± 0.073
- DGKNQGKAEGTK — within error, 0.693 ± 0.041
- GRKGVIAELIKI — within error, 0.659 ± 0.11
- SMFFNSIDATRW — within error, 0.721 ± 0.053
- PEMCEKRIKTPT — within error, 0.634 ± 0.031
- GTGSEGVALRSG — within error, 0.6697 ± 0.001
- SRAPHPPPPTLP — within error, 0.711 ± 0.021
- YESHVLDRMDGR — within error, 0.651 ± 0.026
- GGRGAGGGVELR — within error, 0.661 ± 0.075
- CRSGSGGGIRGR — within error, 0.741 ± 0.011
- SLPPPPCLPPLT — within error, 0.675 ± 0.044
- RVCYVYIGVTMH — within error, 0.634 ± 0.19
- KNKKNKKKTPTT — within error, 0.727 ± 0.013
- PVSPLFWSAKRL — within error, 0.71061 ± 0.00011
- RGRMGLGAPGGG — within error, 0.615 ± 0.0085
- GLVGGLCIGRLV — within error, 0.672 ± 0.024
- GRKTRSPFLVLM — lower, 0.5707 ± 0.002
- RFINRVVAGDRR — within error, 0.681 ± 0.032
- LFLYLGSGARAV — within error, 0.721 ± 0.019
- SEFKLVVGSRSD — within error, 0.715 ± 0.032
- SRPPTFPPFFPS — within error, 0.702 ± 0.015
- PHPPSCPLTPPP — within error, 0.666 ± 0.015
- VSPGPSPPPPPR — within error, 0.622 ± 0.072
- RDPDTWKLFSLT — within error, 0.687 ± 0.043
- NYNNGHNLKKER — within error, 0.634 ± 0.012
- SLCTFSFLRFGF — within error, 0.738 ± 0.015
- PSCLPPPAHLEL — within error, 0.705 ± 0.043

— the supplement of paper PMC10724198
